We go through 5 molecules from publication PMC9491548, “The primary familial brain calcification-associated protein MYORG is an α-galactosidase with restricted substrate specificity” (PLoS Biology, 2022).

The target of data set [1] is T1, MYORG (myogenesis-regulating glycosidase) (Homo sapiens, UniProt Q6NSJ0).
T1 sequence (Q6NSJ0 80-714): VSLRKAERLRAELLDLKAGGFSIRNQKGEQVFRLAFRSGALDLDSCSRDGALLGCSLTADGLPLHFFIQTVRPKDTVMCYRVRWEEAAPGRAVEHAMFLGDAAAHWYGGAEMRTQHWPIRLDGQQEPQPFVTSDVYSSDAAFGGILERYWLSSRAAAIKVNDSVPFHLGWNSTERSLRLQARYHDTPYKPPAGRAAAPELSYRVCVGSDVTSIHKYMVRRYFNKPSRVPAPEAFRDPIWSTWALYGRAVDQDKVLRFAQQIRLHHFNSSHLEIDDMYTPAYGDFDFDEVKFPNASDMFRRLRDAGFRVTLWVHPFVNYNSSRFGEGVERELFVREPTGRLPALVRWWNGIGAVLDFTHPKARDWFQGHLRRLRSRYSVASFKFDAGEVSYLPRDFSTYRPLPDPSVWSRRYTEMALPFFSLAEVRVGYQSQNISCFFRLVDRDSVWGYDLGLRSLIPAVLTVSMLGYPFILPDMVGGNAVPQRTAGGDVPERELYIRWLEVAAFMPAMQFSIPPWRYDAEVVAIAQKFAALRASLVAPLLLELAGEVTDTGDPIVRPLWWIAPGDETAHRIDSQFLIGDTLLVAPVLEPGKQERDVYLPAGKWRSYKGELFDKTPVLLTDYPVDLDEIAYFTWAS
Briefly: ITC; crystal structure ([…] Å soak); thermal shift (ΔTm […] °C); inhibition of 4MU-Gal hydrolysis. The data set is classed as binding. Also noted: residues 80–714 (MYORGGH31). In general terms: Isothermal titration calorimetry measures the heat released or taken up as one component is titrated into another.

The target in data set [2] is myogenesis-regulating glycosidase (MYORG) residues 80-714, glycosylated (human). Nature of the data set: SEC-MALS; SEC-MALLS; Superdex S200 10/300 GL in 20 mM HEPES (pH 7.5), 200 mM NaCl; ambient temperature; 100 ul of 3 mg/ml MYORG injected; 0.5 ml/min. For orientation: SEC sorts molecules by how far they enter the pores of the column.
Data set [3] concerns the target T1, MYORG (myogenesis-regulating glycosidase).
Data set [4] has as its target myogenesis-regulating glycosidase (MYORG) residues 80-714, deglycosylated with EndoH (human). Briefly: SEC-MALS; SEC-MALLS; Superdex S200 10/300 GL in 20 mM HEPES (pH 7.5), 200 mM NaCl; ambient temperature; 100 ul of 3 mg/ml MYORG injected; 0.5 ml/min.
Substrate in data set [5]: OC[C@H]1O[C@H](O[C@H]2[C@H](O)[C@@H](O)C(O)O[C@@H]2CO)[C@H](O)[C@@H](O)[C@H]1O
Briefly: Michaelis–Menten kinetics with purified enzyme (glucose oxidase/HRP paired-enzyme assay); KM. Conditions: active site, −[…] and +[…] subsites. The data set is classed as biochemical, Homo sapiens.

For orientation: Kd means the equilibrium constant for the complex coming apart. On to `OC[C@H]1NC[C@H](O)[C@@H](O)[C@H]1O` [DGJ, deoxygalactonojirimycin], for which, in data set [1], the equilibrium dissociation constant (Kd) was determined as 1330 ± 450 nM.

The stoichiometry N is a count of units in the complex or per binding partner. With “myogenesis-regulating glycosidase (MYORG) residues 80-714, glycosylated (domain or fragment)”, the stoichiometry N in data set [2] is 2.

`Cc1cc(=O)oc2cc(O[C@H]3O[C@H](CO)[C@H](O)[C@H](O)[C@H]3O)ccc12` [4MU-Gal]: the “fluorogenic hydrolysis by purified enzyme; kcat/KM” value in data set [3] turned out to be 7.247 ± 0.0637 M⁻¹ s⁻¹.

In data set [4], “myogenesis-regulating glycosidase (MYORG) residues 80-714, deglycosylated with EndoH (domain or fragment)” had a stoichiometry N of 2.

B1: MYORG (myogenesis-regulating glycosidase) (Homo sapiens) (protein)
chain: VSLRKAERLRAELLDLKAGGFSIRNQKGEQVFRLAFRSGALDLDSCSRDGALLGCSLTADGLPLHFFIQTVRPKDTVMCYRVRWEEAAPGRAVEHAMFLGDAAAHWYGGAEMRTQHWPIRLDGQQEPQPFVTSDVYSSDAAFGGILERYWLSSRAAAIKVNDSVPFHLGWNSTERSLRLQARYHDTPYKPPAGRAAAPELSYRVCVGSDVTSIHKYMVRRYFNKPSRVPAPEAFRDPIWSTWALYGRAVDQDKVLRFAQQIRLHHFNSSHLEIDDMYTPAYGDFDFDEVKFPNASDMFRRLRDAGFRVTLWVHPFVNYNSSRFGEGVERELFVREPTGRLPALVRWWNGIGAVLDFTHPKARDWFQGHLRRLRSRYSVASFKFDAGEVSYLPRDFSTYRPLPDPSVWSRRYTEMALPFFSLAEVRVGYQSQNISCFFRLVDRDSVWGYDLGLRSLIPAVLTVSMLGYPFILPDMVGGNAVPQRTAGGDVPERELYIRWLEVAAFMPAMQFSIPPWRYDAEVVAIAQKFAALRASLVAPLLLELAGEVTDTGDPIVRPLWWIAPGDETAHRIDSQFLIGDTLLVAPVLEPGKQERDVYLPAGKWRSYKGELFDKTPVLLTDYPVDLDEIAYFTWAS
notes: residues 80–714 (MYORGGH31)
One may read the Km as the substrate concentration at which the rate is half of its maximum. With B1, the Km in data set [5] was found to be 980 ± 7 µM.
